Test results: patent publication EP2072528A1 (Labeit, a person, dated 2009)

B3: human MuRF1 polypeptide (muscle ring finger 1), full length (enzyme)
chain: MENLEKQLICPICLEMFTKPVVILPCQHNLCRKCANDIFQAANPYWTSRGSSVSMSGGRFRCPTCRHEVIMDRHGVYGLQRNLLVENIIDIYKQECSSRPLQKGSHPMCKEHEDEKINIYCLTCEVPTCSMCKVFGIHKACEVAPLQSVFQGQKTELNNCISMLVAGNDRVQTIITQLEDSRRVTKENSHQVKEELSQKFDTLYAILDEKKSELLQRITQEQEEKLSFIEALIQQYQEQLDKSTKLVETAIQSLDEPGGATFLLTAKQLIKSIVEASKGCQLGKTEQGFENMDFFTLDLEHIADALRAIDFGTDEEEEEFIEEEDQEEEESTEGKEEGHQ
notes: Full length bait in the yeast two-hybrid screens; also called TRIM63; RNF28

Legend:
[1] = target: B3; experiment: yeast two-hybrid, full length bait
[2] = target: B3; experiment: yeast two-hybrid
ENO3 (NP_443739.2) = ENO3 (NP_443739.2) (human, UniProt P13929 1-434, limits assumed); experiment: yeast two-hybrid
Chain of ENO3 (NP_443739.2) (P13929 whole entry): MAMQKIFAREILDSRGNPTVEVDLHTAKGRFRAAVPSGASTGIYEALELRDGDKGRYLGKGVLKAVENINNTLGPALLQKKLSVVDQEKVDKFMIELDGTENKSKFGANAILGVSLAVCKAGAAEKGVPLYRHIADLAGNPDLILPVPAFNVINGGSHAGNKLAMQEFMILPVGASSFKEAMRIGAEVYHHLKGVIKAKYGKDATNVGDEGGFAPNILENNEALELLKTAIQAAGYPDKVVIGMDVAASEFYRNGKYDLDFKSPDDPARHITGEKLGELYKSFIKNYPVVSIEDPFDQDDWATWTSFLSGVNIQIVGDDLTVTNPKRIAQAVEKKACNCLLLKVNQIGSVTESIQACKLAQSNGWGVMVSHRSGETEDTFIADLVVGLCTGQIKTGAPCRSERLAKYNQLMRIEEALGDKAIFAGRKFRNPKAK

[3] = target: T1, sequestosome-1 (NP_003891.1) (human, UniProt Q13501 1-440, limits assumed); experiment: yeast two-hybrid, full length bait
T1 construct: also called SQSTM1

EEF1G (NP_001395.1) = target: T2, EEF1G (NP_001395.1) (human, UniProt P26641 1-437, limits assumed); experiment: yeast two-hybrid, full length bait
T2 construct: also called translation initiation factor EEF1G
T2 sequence (P26641 whole entry): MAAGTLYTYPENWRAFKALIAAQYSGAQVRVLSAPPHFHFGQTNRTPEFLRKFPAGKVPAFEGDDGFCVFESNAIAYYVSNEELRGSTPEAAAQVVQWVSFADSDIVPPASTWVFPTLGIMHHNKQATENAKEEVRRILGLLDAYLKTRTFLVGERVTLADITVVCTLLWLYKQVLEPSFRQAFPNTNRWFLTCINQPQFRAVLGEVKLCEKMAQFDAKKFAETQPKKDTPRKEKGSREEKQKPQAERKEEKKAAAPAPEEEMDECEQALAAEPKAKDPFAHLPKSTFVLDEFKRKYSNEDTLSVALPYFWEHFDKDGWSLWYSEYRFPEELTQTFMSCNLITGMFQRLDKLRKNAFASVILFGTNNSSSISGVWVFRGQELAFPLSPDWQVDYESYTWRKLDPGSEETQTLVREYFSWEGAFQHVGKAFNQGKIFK

B1: FHL2 (NP_963851.2) (other, human, UniProt Q14192 1-279, looked up)
chain: MTERFDCHHCNESLFGKKYILREESPYCVVCFETLFANTCEECGKPIGCDCKDLSYKDRHWHEACFHCSQCRNSLVDKPFAAKEDQLLCTDCYSNEYSSKCQECKKTIMPGTRKMEYKGSSWHETCFICHRCQQPIGTKSFIPKDNQNFCVPCYEKQHAMQCVQCKKPITTGGVTYREQPWHKECFVCTACRKQLSGQRFTARDDFAYCLNCFCDLYAKKCAGCTNPISGLGGTKYISFEERQWHNDCFNCKKCSLSLVGRGFLTERDDILCPDCGKDI
B1: binds [1].

B2: FABP4 (NP_001433.1) (other, human, UniProt P15090 1-132, looked up)
chain: MCDAFVGTWKLVSSENFDDYMKEVGVGFATRKVAGMAKPNMIISVNGDVITIKSESTFKNTEISFILGQEFDEVTADDRKVKSTITLDGGVLVHVQKWDGKSTTIKRKREDDKLVVECVMKGVTSTRVYERA
B2: binds [2].

B3: binds (ENO3 (NP_443739.2)); binds [3]; binds (EEF1G (NP_001395.1)).
